Positions count from the first letter of the chain named. Like-named read-outs stand apart in the source and are kept apart here.
T1: LAG3 Protein, Human, Recombinant (His Tag) (Sino Biological Catalog No. 16498-H08H) (human, UniProt P18627 23-450)
T1 construct: Bought protein; also called hLAG3-His; LAG3-His; not shown: His tag
T1 sequence (looked up): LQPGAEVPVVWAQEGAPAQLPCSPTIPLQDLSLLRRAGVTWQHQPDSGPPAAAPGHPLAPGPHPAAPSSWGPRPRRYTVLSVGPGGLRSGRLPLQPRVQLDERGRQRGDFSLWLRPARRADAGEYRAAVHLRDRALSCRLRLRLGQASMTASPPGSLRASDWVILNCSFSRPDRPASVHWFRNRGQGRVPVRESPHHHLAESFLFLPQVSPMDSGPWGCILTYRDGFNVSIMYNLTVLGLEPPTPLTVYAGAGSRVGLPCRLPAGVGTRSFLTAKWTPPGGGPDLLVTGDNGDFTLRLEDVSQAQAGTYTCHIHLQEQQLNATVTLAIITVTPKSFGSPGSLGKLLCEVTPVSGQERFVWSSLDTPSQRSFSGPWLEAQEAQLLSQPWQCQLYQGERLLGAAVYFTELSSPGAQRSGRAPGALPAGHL

T2: human LAG3 expressed on cells (human, UniProt P18627 23-525)
T2 construct: whole, on cells
T2 sequence (looked up): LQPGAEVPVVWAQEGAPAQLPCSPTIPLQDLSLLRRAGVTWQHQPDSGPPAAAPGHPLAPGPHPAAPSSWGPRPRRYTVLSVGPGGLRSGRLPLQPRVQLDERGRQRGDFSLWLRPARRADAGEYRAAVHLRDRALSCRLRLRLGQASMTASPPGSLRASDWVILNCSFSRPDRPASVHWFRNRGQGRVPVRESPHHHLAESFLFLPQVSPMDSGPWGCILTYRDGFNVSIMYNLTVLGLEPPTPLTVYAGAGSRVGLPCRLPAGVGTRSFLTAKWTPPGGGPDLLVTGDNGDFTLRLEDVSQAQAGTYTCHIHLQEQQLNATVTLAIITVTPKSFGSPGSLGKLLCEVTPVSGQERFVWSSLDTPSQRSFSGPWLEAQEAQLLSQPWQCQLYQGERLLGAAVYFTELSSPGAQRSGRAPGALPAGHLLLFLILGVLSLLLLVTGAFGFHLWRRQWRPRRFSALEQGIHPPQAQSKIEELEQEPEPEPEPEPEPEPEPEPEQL

B1: sdAb No. 17-H5 (VHH)
VHH: QLQLVESGGGLVQPGGSLRLSCAASGLTLDAYAIGWFRQAPGKEREGLACISGSDASTHYLDSVKGRFTISRDNGKNTMALQMNSLQFGDTAIYYCAARRGSCSGSWTYWGQGTQVTVSS
notes: Modified sdAb No. 17 (CDR1 and CDR2 DG to DA); not shown: Fc part implied by anti-human IgG1 Fc detection
B2: sdAb No. 25-B5 (VHH)
VHH: QVQLVESGGGLVKPGGSLRLSCAASGSIESFSFMGWYRQAPGKQREWVAGFTGAASLSFSTYTDAVKGRFTISRDNAKNSLYLQMNSLRAEDTAVYYCNVDPWSQSWPGRYWGQGTTVTVSS
notes: Humanized sdAb No. 25; not shown: Fc part implied by anti-human IgG1 Fc detection
B3: sdAb No. 25-B6 (VHH)
VHH: B2 VHH with V2L, L81V
notes: as for B2
B4: sdAb No. 27-H1 (VHH)
VHH: QVQLVESGGGLVQPGGSLRLSCAASGFTLDYYAIGWFRQAPGKEREGVSCIRSSDASTYYADSVKGRFTISSDNTKNTVYLQMNSLKPEDTAVYYCATDRYSDCRGPYENWGQGTQVTVSS
notes: Modified sdAb No. 27 (CDR2 DG to DA); not shown: Fc part implied by anti-human IgG1 Fc detection
B5: sdAb No. 27-H2 (VHH)
VHH: B4 VHH with D55E, A56G
notes: Modified sdAb No. 27 (CDR2 DG to EG); not shown: Fc part implied by anti-human IgG1 Fc detection
B6: sdAb No. 8 (VHH)
VHH: QLQLVESGGGLVQPGGSLRLSCAASGFTLDYYAIGWFRQAPGKEREGVSCISSSDGSTYYADSVKGRFTISRDNAKNTVYLQMNSLKPEDTAIYYCARDSLSGSGYGCRGPYDYWGQGTQVTVSS
notes: Fc of the tested form not described; not shown: Fc part implied by anti-human Fc capture

Legend:
[1] = molecular target: T1, LAG3 Protein, Human, Recombinant (His …); test: ELISA, coated hLAG3-His
Method: (§1) Plates were coated with 100 µL per well of Coating Solution, and then covered, and incubated overnight (12-18 hours) at 2-8° C. The wells were aspirated and washed 1 time with >200 µL of Wash buffer per well, inverted and tapped on absorbent paper to remove excess liquid. The plates were blocked with 200 µL per well with Blocking buffer (1×PBS+4% milk) for 1 hour at room temperature, aspirated, inverted, and tapped on absorbent paper to remove excess liquid. Standards and sample dilutions were prepared in Blocking buffer. 100 µL of standards (in duplicate) and samples were pipetted into designated wells. After incubation for 1 hour at room temperature with gentle continual shaking (~500 rpm), the wells were aspirate and washed 3 times with >200 µL of Wash buffer per well, inverted and tapped on absorbent paper to remove excess liquid.
(§2) The primary antibody solution was diluted with Blocking buffer. See Table 14 for recommended primary antibody dilution. 100 µL of the primary antibody solution was added into each well and incubated for 2 hours at room temperature with gentle continual shaking (~500 rpm). The wells were aspirated and washed 3 times with >200 µL of Wash buffer per well, inverted and tapped on absorbent paper to remove excess liquid. The working solution of secondary antibody was made with Blocking buffer by diluting the secondary antibody by 2,500 times. 100 µL of secondary antibody working solution was added into each well and incubated for 30 minutes at room temperature. The wells were aspirated and washed 5 times with >200 µL of Wash buffer per well, inverted and tapped on absorbent paper to remove excess liquid. 100 µL of TMB substrate solution (Biopanda, TMB-S-004) was added to each well and incubated for 30 minutes at room temperature. 100 µL of Stop solution (Solarbio, C1058) was added to each well.

[2] = molecular target: T1, LAG3 Protein, Human, Recombinant (His …); test: ELISA, coated hLAG3-His; remark: listed apart in the source
Method: as §1
as §2, with “well. Absorbance at 450 nm was measured within 30 minutes of adding Stop solution. Results were calculated using a log-log or 4-parameter curve fit.” for “well.”

[3] = molecular target: human LAG3 expressed on cells (human) (UniProt P18627); test: cell ELISA, 293T-LAG3 cells
[4] = molecular target: T2, human LAG3 expressed on cells; test: cell ELISA, 293T-hLAG3 cells
Method: Each well was treated with stimulants. The cells were then fixed and blocked with Blocking buffer. The Primary antibodies were added. The wells were washed and a HRP-conjugated secondary antibody was added. The wells were washed with 1x PBS and a solution containing TMB (Biopanda, TMB-S-004) was added. The TMB reacted with HRP to change the color thereof from colorless to blue. An acid stop solution (Solarbio, C1058) was then added to stop the reaction and change the blue color to yellow.
Materials are listed below: [0072] […] 2) Blocking buffer: 1×PBS+3% BSA (Sigma, B2064); [0074] […] [0075] 4) Secondary antibody: Goat anti-human IgG1 Fc antibody, HRP (1:2500, invitrogen, A18817). [0076]

[5] = molecular target: T1, LAG3 Protein, Human, Recombinant (His …); test: SPR (Biacore), sdAb captured by anti-human Fc, LAG3-His analyte
Method: The binding of the single domain antibodies to recombinant human LAG3 protein (rhLAG3) was examined by Biacore™ assay. […] The coating was carried out according to the manufacturer’s instructions accompanying the kit (Catalog No. BR-1008-39, GE). […] The chip surface was regenerated after each cycle with 25 mM NaOH followed by HBS-EP wash provided in the kit.

Row | Binder | EC50 [1] | OD450 at 0.061 nM [2] | OD450 at 0.1829 nM [2] | OD450 at 0.5487 nM [2] | OD450 at 1.6461 nM [2] | OD450 at 4.9383 nM [2] | OD450 at 14.815 nM [2] | OD450 at 44.445 nM [2] | OD450 at 133.335 nM [2] | OD450 at 0.122 nM [3] | OD450 at 0.366 nM [3] | OD450 at 1.097 nM [3] | OD450 at 3.292 nM [3] | OD450 at 9.877 nM [3] | OD450 at 29.63 nM [3] | OD450 at 88.89 nM [3] | OD450 at 266.67 nM [3] | OD450 at 0.004572 ug/ml [1] | OD450 at 0.013717 ug/ml [1] | OD450 at 0.041152 ug/ml [1] | further results
1 | B1 | 1.19 nM | – | – | – | – | – | – | – | – | – | – | – | – | – | – | – | – | – | – | – | –
2 | B2 | – | 0.036 | 0.04 | 0.038 | 0.048 | 0.062 | 0.084 | 0.114 | 0.163 | 0.086 | 0.113 | 0.124 | 0.196 | 0.21 | 0.254 | 0.311 | 0.608 | – | – | – | EC50 [2]: 452 nM
3 | B3 | – | 0.037 | 0.039 | 0.037 | 0.044 | 0.053 | 0.069 | 0.085 | 0.128 | 0.056 | 0.07 | 0.095 | 0.166 | 0.306 | 0.399 | 0.888 | 1.47 | – | – | – | –
4 | B4 | 3.28 nM | – | – | – | – | – | – | – | – | – | – | – | – | – | – | – | – | 0.04 | 0.043 | 0.063 | OD450 at 0.123457 ug/ml [1]: 0.36; OD450 at 0.37037 ug/ml [1]: 1.42; OD450 at 1.111111 ug/ml [1]: 1.8; OD450 at 3.333333 ug/ml [1]: 2; OD450 at 10 ug/ml [1]: 1.95; EC50 [4]: 1.4 nM; OD450 at 0.0045725 ug/ml [4]: 0.076; OD450 at 0.0137174 ug/ml [4]: 0.171; OD450 at 0.0411523 ug/ml [4]: 0.359; OD450 at 0.1234568 ug/ml [4]: 0.719; OD450 at 0.3703704 ug/ml [4]: 1.08; OD450 at 1.111111 ug/ml [4]: 1.17; OD450 at 3.333333 ug/ml [4]: 1.24; OD450 at 10 ug/ml [4]: 1.33
5 | B5 | 3.73 nM | – | – | – | – | – | – | – | – | – | – | – | – | – | – | – | – | 0.038 | 0.043 | 0.063 | OD450 at 0.123457 ug/ml [1]: 0.334; OD450 at 0.37037 ug/ml [1]: 1.43; OD450 at 1.111111 ug/ml [1]: 1.96; OD450 at 3.333333 ug/ml [1]: 2.08; OD450 at 10 ug/ml [1]: 2.27; EC50 [4]: 1.55 nM; OD450 at 0.0045725 ug/ml [4]: 0.075; OD450 at 0.0137174 ug/ml [4]: 0.152; OD450 at 0.0411523 ug/ml [4]: 0.314; OD450 at 0.1234568 ug/ml [4]: 0.626; OD450 at 0.3703704 ug/ml [4]: 1.07; OD450 at 1.111111 ug/ml [4]: 1.16; OD450 at 3.333333 ug/ml [4]: 1.14; OD450 at 10 ug/ml [4]: 1.2
6 | B6 | – | – | – | – | – | – | – | – | – | – | – | – | – | – | – | – | – | – | – | – | Kd [5]: 0.347 nM; koff [5]: 0.000277 s⁻¹; kon [5]: 797000 M⁻¹ s⁻¹

Source: US20230303690A1 (published 2023)
